Source: patent publication US20230056815A1

Columns and labels:
Experiment in all cases: cell-based or functional assay
[1] = biological target: cynomolgus monkey soluble FLT3L (cynomolgus monkey)
[2] = biological target: human soluble FLT3L (recombinant huFLT3L) (human) (UniProt P49771)
[3] = biological target: mouse soluble FLT3L (mouse) (UniProt P49772)
Chain of mouse soluble FLT3L (mouse) (P49772 27-189): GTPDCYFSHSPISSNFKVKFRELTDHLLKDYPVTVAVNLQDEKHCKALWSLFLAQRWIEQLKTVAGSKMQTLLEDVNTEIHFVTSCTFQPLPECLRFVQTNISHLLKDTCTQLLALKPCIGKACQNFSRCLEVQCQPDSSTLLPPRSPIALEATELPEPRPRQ

Chain of human soluble FLT3L (recombinant huFLT3L) (human) (P49771 27-184): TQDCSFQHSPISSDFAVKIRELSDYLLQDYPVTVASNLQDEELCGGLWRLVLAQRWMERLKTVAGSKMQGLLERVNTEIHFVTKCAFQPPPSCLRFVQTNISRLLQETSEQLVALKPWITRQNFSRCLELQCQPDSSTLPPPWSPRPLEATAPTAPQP

commercially available mouse anti-human FLT3L monoclonal antibody (MAB608, R&D Systems)
IC50 (nM), inhibition of FLT3 downregulation on RS4;11 cells [1]: 0.1 nM
IC50 (nM) against 0.476 nM FLT3L, ERK phosphorylation in CD133+ stem cells [2]: 0.19 nM
IC50 (nM) against 0.476 nM FLT3L, MEK phosphorylation in CD133+ stem cells [2]: 0.19 nM
IC50 (nM), inhibition of FLT3 downregulation on RS4;11 cells [2]: 0.04 nM
IC50 (nM), inhibition of FLT3 downregulation on RS4;11 cells [3]: 0.12 nM
